Measurements as given in paper PMC2483528.

What was measured:
Assay in all cases: pull-down
[1] = biological target: GST-Gαi3 wild type (rat) (rat) (UniProt P08753)
[2] = biological target: GST-Gαi3 G203A (rat, inactive mutant) (rat) (UniProt P08753)
GST-Gαs (human) (human) = GST-Gαs (human) (human) (UniProt P63092)
Sequence of UniProt P63092 (P63092 2-394): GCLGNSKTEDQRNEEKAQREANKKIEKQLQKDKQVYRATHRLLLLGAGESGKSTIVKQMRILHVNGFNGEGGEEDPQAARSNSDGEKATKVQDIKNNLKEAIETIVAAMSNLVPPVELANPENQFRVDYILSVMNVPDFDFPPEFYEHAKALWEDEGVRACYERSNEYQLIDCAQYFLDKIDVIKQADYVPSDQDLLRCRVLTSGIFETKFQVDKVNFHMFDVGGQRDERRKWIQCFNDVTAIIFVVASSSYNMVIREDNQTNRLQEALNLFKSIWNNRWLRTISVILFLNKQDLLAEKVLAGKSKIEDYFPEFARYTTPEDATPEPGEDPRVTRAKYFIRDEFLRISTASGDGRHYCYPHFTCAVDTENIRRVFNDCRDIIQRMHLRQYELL

Substance | percent of GIV bound to GST-Gαi3 [1] [%] | fold more GIV bound than by Gαi3Q204L [2] [fold] | fold less GIV bound than by GST-Gαi3 (GST-Gαs (human) (human)) [fold] | percent of the total GIV bound [1] [%]
GIV, full length, in vitro translated (natural protein) | 14 | 10 to 15 | 100 to 300 | –
GIV S1416A, in vitro translated (natural protein) | 13 | – | – | –
GIV S1416D, in vitro translated (natural protein) | 14 | – | – | –
GIV (Gα-interacting vesicle-associated protein), endogenous in HeLa cell lysate (natural protein) | – | 10 to 15 | 100 to 300 | 10 to 30
